In US20050058983A1:

Target: HIVSF162 Env on pseudotyped virions (HIV-1 SF162) (UniProt P19550)
Test: cell-based or functional assay

human Mab 697D (antibody)
ND50: 80 µg/mL
